Non-standard residues stand in square brackets, D forms with d. Residues, ends and D or L forms follow the SMILES beside them. *: point of attachment. DOTA = O=C(O)CN1CCN(CC(=O)O)CCN(CC(=O)*)CCN(CC(=O)O)CC1; Nle = CCCC[C@H](N)C(=O)O
How the values were obtained:
in vivo = conditions: male, SCID, mouse, iv, 10 pmol, total radioactivity
Description: (§1) Inocula of A431-CCK2R(+) and A431-CCK2R(−) cells (1.5 × 10^7 cells and 1.2 × 10^7 cells respectively, in 150 µL normal saline) were subcutaneously injected in the right and left flanks respectively, of 12 male SCID mice; in 5 more mice, a A431-CCK2R(+) cell suspension (1.5 × 10^7 cells in 150 µL normal saline) was subcutaneously injected instead on the neck of the animals. […] All animals were kept under aseptic conditions during this period and until biodistribution or imaging was conducted.
(§2) For the biodistribution study, animals in groups of 4 received a 100 μL bolus of [^99mTc]Tc-DB4 via the tail vein (200 kBq, corresponding to 10 pmol total peptide in saline/EtOH 9/1 v/v—GRPR-tumor-bearing mice) or [^111In]In-SG4 (50 kBq, 10 pmol total peptide—twin A431-CCK2R(+)/A431-CCK2R(−) tumor-bearing mice) co-injected either with injection solution (100 μL; control) or with LBQ657 solution (100 µL injection solution containing 10 µg LBQ657). In additional sets of animals, mice received, by gavage, a single Entresto dose (12 mg/[…] per animal, prepared as described in Section 2.1.1) 30 min prior to injection of the respective radiotracer together with vehicle (100 μL; Entresto group), or with a [Tyr^4]BBN solution (100 μg in 100 μL vehicle; block group). Mice were euthanized at 4 h pi and dissected. Samples of blood, tumors and organs of interest were collected, weighed and measured for radioactivity in the γ-counter (an automated well-type gamma counter with a NaI(Tl) 3′’ crystal, Canberra Packard Auto-Gamma 5000 series instrument). Intestines and stomach were not emptied of their contents; exceptionally, in the case of [^111In]In-SG4-injected animals, stomachs were emptied of their contents. Data was calculated as percent injected activity per gram tissue (%IA/g) with the aid of standard solutions and represented as mean values ± standard deviation (SD), n = 4.

[1] = system: SCID mice bearing double A431-CCK2R(+/−) xenografts (CCK2R); experiment: in vivo; conditions: SCID mice with double A431-CCK2R(+/−) xenografts, 4 h pi, 50 kBq/10 pmol peptide iv, γ-counter, mean ± SD, n = 4; for Biodistribution, Stomach: stomach emptied of contents; for Biodistribution, Intestines: intestines not emptied
Description: as §1, §2

[2] = system: A431-CCK2R(+) tumor-bearing mice; conditions: 4 h after injection
Description: Five mice bearing A431-CCK2R(+) xenografts on their shoulders were used for SPECT/CT imaging. Three out of five mice received Entresto by gavage 30 min prior to radiotracer injection. All five animals were injected with a bolus containing [^111In]In-SG4 (100 μL, 5 MBq of HPLC isolated preparation) via the tail vein and were euthanized 4 h later. […] The SPECT system was based on monolithic NaI detectors attached to SiPMs, with a 0.6 mm intrinsic resolution. The CT system was based on a structured CMOS detector of CsI with pixels of 75 µm and operated between 35 and 80 kVp, 10–500 µA tube current, with a 33 µm fixed focal spot size. For SPECT scans, a 60 min duration protocol was applied, based on the injected activity. A CT scan followed after each SPECT scan, according to a General Purpose protocol under 50 kVp for co-registration purposes. The MLEM reconstruction method was applied for the reconstruction of SPECT images with a 250 µm voxel size and 500 iterations. The ISRA reconstruction method with a 100 µm voxel size was applied for the reconstruction of CT images. Images were exported and post-processed on VivoQuant software, version 4.0 (Invicro, Boston, MA, USA). A smoothing median filter (0.6 mm, spherical window) was applied to the images and for consistency purposes, the bladder was removed.

[3] = Entresto: 12 mg/200 mL by gavage 30 min before, co-injected with vehicle
[4] = LBQ657: co-injected with 10 µg LBQ657

SMILES: CCCC[C@H](NC(=O)[C@H](Cc1c[nH]c2ccccc12)NC(=O)CNC(=O)[C@H](Cc1ccc(O)cc1)NC(=O)[C@H](C)NC(=O)[C@@H](CCC(=O)O)NC(=O)CN1CCN(CC(=O)O)CCN(CC(=O)O)CCN(CC(=O)O)CC1)C(=O)N[C@@H](CC(=O)O)C(=O)N[C@@H](Cc1ccccc1)C(N)=O [[^111In]In-SG4, metal not drawn] ({DOTA}-[dE]AYGW[Nle]DF-NH2)
- tissue uptake at 4 h (in vivo; A431-CCK2R(+) tumor): 3.07 ± 0.87 %ID/g
- tissue uptake at 4 h (in vivo; A431-CCK2R(−) tumor): 0.28 ± 0.21 %ID/g
- tissue uptake at 4 h (in vivo; blood): 0.03 ± 0.02 %ID/g
- tissue uptake at 4 h (in vivo; femur): 0.1 ± 0.03 %ID/g
- tissue uptake at 4 h (in vivo; heart): 0.05 ± 0.02 %ID/g
- tissue uptake at 4 h (in vivo; kidneys): 2.1 ± 0.49 %ID/g
- tissue uptake at 4 h (in vivo; liver): 0.15 ± 0.02 %ID/g
- tissue uptake at 4 h (in vivo; lungs): 0.06 ± 0.01 %ID/g
- tissue uptake at 4 h (in vivo; muscle): 0.03 ± 0.02 %ID/g
- tissue uptake at 4 h (in vivo; pancreas): 0.08 ± 0.09 %ID/g
- tissue uptake at 4 h (in vivo; spleen): 0.11 ± 0.04 %ID/g
- Biodistribution, Stomach ([1]; Controls: co-injected with vehicle): 1.29 ± 0.25 %IA/g
- Biodistribution, Femur [1, 3]: 0.14 ± 0.03 %IA/g
- Biodistribution, Kidneys [1, 3]: 2.40 ± 0.61 %IA/g
- Biodistribution, Pancreas [1, 3]: 0.34 ± 0.14 %IA/g
- Biodistribution, Spleen [1, 3]: 0.22 ± 0.05 %IA/g
- Biodistribution, Tumor (+) (A431-CCK2R(+)) [1, 3]: 9.61 ± 1.70 %IA/g
- Biodistribution, Tumor (–) (A431-CCK2R(−)) [1, 3]: 0.40 ± 0.23 %IA/g
- Biodistribution, Intestines [1, 3]: 0.34 ± 0.07 %IA/g
- Biodistribution, Stomach [1, 3]: 2.86 ± 0.53 %IA/g
- Biodistribution, Intestines [1, 4]: 0.49 ± 0.12 %IA/g
- Biodistribution, Stomach [1, 4]: 3.10 ± 0.41 %IA/g
- change of tumor uptake on SPECT/CT, Entresto-treated vs controls ([2]; Entresto orally 30 min in advance (3 mice) vs controls (2 mice), A431-CCK2R(+) tumors, 5 MBq iv): notable increase in the tumor uptake
- accumulation in A431-CCK2R(+) xenografts on SPECT/CT images ([2]; SCID mice bearing A431-CCK2R(+) tumors, 5 MBq HPLC-isolated iv, five mice): Significant accumulation

Source: article PMC7760338, “One Step Closer to Clinical Translation: Enhanced Tumor Targeting of [^99mTc]Tc-DB4 and [^111In]In-SG4 in Mice Treated with Entresto” (Pharmaceutics, 2020)
